Data reported in US20060148030A1, “Nuclear receptor err y 3” (FUJISAWA PHARMACEUTICAL CO., LTD, priority 2002, published 2006).

Target: T1, PPARβ (Homo sapiens, UniProt Q03181)
T1 construct: expressed in transfected cells; host or cells: CV-1 (African green monkey kidney)
T1 sequence (Q03181 1-441): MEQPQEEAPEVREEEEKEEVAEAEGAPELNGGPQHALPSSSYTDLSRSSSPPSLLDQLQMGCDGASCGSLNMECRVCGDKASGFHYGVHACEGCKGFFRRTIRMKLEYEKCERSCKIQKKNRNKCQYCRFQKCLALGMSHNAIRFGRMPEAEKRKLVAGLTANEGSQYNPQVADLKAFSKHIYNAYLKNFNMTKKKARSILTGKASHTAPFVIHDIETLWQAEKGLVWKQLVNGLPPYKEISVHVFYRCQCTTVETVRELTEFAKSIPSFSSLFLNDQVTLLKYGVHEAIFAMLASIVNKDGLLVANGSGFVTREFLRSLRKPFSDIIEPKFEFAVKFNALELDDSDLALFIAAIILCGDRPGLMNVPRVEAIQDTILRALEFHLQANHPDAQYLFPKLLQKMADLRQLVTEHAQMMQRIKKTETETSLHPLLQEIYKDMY
T1 sequence (P19793 1-462 partner): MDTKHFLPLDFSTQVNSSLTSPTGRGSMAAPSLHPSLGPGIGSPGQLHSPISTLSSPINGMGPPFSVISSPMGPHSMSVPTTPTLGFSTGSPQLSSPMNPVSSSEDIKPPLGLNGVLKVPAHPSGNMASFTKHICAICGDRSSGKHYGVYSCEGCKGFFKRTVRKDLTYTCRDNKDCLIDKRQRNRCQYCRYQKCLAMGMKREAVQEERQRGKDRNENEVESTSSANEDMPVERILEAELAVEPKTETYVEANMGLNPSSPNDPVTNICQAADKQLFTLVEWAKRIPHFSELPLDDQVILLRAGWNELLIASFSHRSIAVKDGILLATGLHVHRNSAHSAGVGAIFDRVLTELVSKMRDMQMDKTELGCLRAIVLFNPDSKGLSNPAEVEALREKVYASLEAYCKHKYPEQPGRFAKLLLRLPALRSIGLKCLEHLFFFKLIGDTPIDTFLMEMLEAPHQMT
Assay: Reporter gene assay, ERRγ3 coexisted with PPARβ, pGVP2-PPRE1 in CV-1 cells
Type: cell-based
Conditions: 10^−5 M carbacyclin, FIG. 24
Method: Transfection was performed as follows: CV-1 cells were resuspended in DMEM supplemented with 10% fetal bovine serum, 2000 U/l of penicillin G, and 100 mg/l of streptomycin to a concentration of 2×10^5 cells/2.5 ml. This was then seeded to a 6-well plate at 2.5 ml per well, and incubated for 18-24 hours in a CO2 incubator at 37° C. and 5% CO2. 1 μg of each of the expression plasmids for the transcription factors, the luciferase reporter plasmid, and another luciferase reporter plasmid used for normalization of the measured values (pRL-TK), were dissolved in Opti-MEM (Gibco BRL), to a total of 150 μl. […] Luciferase activity was measured using the Dual-Luciferase™ Reporter Assay System (Promega). […] The protocol for measurement was as follows: 50 μl of Luciferase Assay Reagent II was added to each well, stirred for 0.3 seconds, and measured for one second. 50 μl of Stop&Glo™ Reagent was then added, stirred for 0.3 seconds, and measured for one second. The measured values for firefly luciferase activity were corrected by dividing by the value for the Renilla luciferase activity, the internal control. Average values and standard errors were calculated from triplicate samples.
The effect of ligands on the function of ERRγ3 in enhancing the transcriptional activation function of peroxisome proliferator activated receptor (PPAR) α, β, or γ was evaluated using the reporter gene assay (FIG. 24). […]

B1: ERRγ3: novel ERRγ isoform, nuclear receptor protein of 396 amino acids (SEQ ID NO: 2) lacking part of the DNA binding domain (protein, listed as Homo sapiens)
chain: MSNKDRHIDSSCSSFIKTEPSSPASLTDSVNHHSPGGSSDASGSYSSTMNGHQNGLDSPPLYPSAPILGGSGPVRKLYDDCSSTIVEDPQTKCEYMLNSMPKRLCLVCGDIASGYHYGVASCEACKAFFKRTIQGVRLDRVRGGRQKYKRRIDAENSPYLNPQLAQPAKKPYNKIVSHLLVAEPEKIYAMPDPTVPDSDIKALTTLCDLADRELVVIIGWAKHIPGFSTLSLADQMSLLQSAWMEILILGVVYRSLSFEDELVYADDYIMDEDQSKLAGLLDLNNAILQLVKKYKSMKLEKEEFVTLKAIALANSDSMHIEDVEAVQKLQDVLHEALQDYEAGQHMEDPRRAGKMLMTLPLLRQTSTKAVQHFYNIKLEGKVPMHKLFLEMLEAKV
  modifying effect on the transcriptional stimulation activity of PPARβ: did not show any significant modifying effect
